Assay results published in patent US8618101B2, “N-((1R,2S,5R)-5-(tert-butylamino)-2-((S)-3-(7-tert-butylpyrazolo[1,5-a][1,3,5]triazin-4-ylamino)-2-oxopyrrolidin-1-yl)cyclohexyl)acetamide, a dual modulator of chemokine receptor activity, crystalline forms and processes” (Bristol-Myers Squibb Company, priority 2009, dated 2013).

Molecular target: CCR-2 (Homo sapiens, UniProt P41597)
Test: Cold competition ligand binding to hCCR-2 using 125I-human MCP-1
Conditions: 125I-human MCP-1, n=8

Sequence of CCR-2 (P41597 whole entry): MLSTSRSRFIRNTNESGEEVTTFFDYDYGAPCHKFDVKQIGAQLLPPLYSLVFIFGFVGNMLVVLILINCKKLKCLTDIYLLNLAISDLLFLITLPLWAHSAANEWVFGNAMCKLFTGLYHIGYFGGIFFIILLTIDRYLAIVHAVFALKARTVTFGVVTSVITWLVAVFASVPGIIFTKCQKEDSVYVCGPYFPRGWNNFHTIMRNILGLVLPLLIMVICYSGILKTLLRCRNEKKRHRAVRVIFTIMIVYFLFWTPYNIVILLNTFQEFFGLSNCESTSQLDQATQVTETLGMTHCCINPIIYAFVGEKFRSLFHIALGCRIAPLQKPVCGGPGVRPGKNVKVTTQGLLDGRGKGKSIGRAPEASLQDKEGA

mouse MCP-1: mouse chemokine MCP-1, major ligand of CCR-2
Kd: 0.91 nM
